The values below come from article PMC2756776 (Arteriosclerosis, thrombosis, and vascular biology, 2009).

The test addresses Factor XI (FXI), plasma-derived (human). The experiment in a line: ELISA. In general terms: ELISA stands for enzyme-linked immunosorbent assay.

As usually defined, the Kd is the free concentration of one partner at which half of the binding sites on the other are occupied at equilibrium, for simple one-to-one binding. A higher Kd goes with weaker binding.

B1: Soluble recombinant ApoER2’ (a splice variant of ApoER2 lacking LDL-binding domains 4, 5 and 6) (receptor)
chain: not shown
Consider B1, for which the Kd came out at 61 nM.
